Experimental data as given in patent CN101605906A (MEDAREX INC, dated 2009).

Target: T1, 人类CD70 (表达于细胞表面) (human, UniProt P32970 1-193)
T1 sequence: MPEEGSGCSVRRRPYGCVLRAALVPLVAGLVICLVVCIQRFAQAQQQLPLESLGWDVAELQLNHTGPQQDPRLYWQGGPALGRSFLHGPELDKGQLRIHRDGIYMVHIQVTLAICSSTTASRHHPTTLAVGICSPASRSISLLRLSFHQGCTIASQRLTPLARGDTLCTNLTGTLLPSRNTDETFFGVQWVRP
Assay: cell-based or functional assay

3 H-胸腺嘧啶核苷掺入 (Hum-Zap内化测定, 786-O细胞), EC50: 0.9 nM
B1: 抗-CD70人类单克隆抗体2H5 (antibody, V domains shown)
VH: QVQLVESGGGVVQPGRSLRLSCAASGFTFSSYIMHWVRQAPGKGLEWVAVISYDGRNKYYADSVKGRFTISRDNSKNTLYLQMNSLRAEDTAVYYCARDTDGYDFDYWGQGTLVTVSS
VL: EIVLTQSPATLSLSPGERATLSCRASQSVSSYLAWYQQKPGQAPRLLIYDASNRATGIPARFSGSGSGTDFTLTISSLEPEDFAVYYCQQRTNWPLTFGGGTKVEIK
